Substrate in the data set: Cc1cc(=O)oc2cc(NC(=O)[C@H](CCCNC(=N)N)NC(=O)CNC(=O)[C@H](CCC(N)=O)NC(=O)OC(C)(C)C)ccc12
Nature of the data set: Substrate KM for protease screen, FXII. Type of data set: biochemical. The settings on record: other: FXII. The method, then:
Crude macrocyclic libraries (4 mM DMSO stocks in 384-well LDV plates were transferred into 1536-well microtiter OptiPlates via ADE. Applied buffered solutions were prepared by filtration through PTFE syringe filters (0.22 μm) and assays were initiated by addition of protease (4.41 μl/well) in appropriate buffer (see list below) supplemented with bovine serum albumin (BSA; 0.1% w/v) and dispensed using a CERTUS automated liquid handler. Plates were incubated for 10 min at ambient temperature before fluorogenic substrate in appropriate buffer (4.5 μl) was added using a CERTUS automated liquid handler. Plates were centrifugated (800 g, 2 min) and fluorescence intensity was measured using a PHERAstar plate reader (excitation 384 nm, emission 440 nm) in time increments of 150 s over 15 min. Slopes of fluorescence increase (m) were calculated with Microsoft Excel (vers. 16.56). Negative controls were prepared without macrocycle. An average of 12 negative controls was used to calculate residual activities using Equation I below: […]
where [S]0 is the initial substrate concentration and KM is the Michaelis-Menten constant^12 for the enzyme and substrate.

B1: FXII (Homo sapiens) (protein)
chain: VVGGLVALRGAHPYIAALYWGHSFCAGSLIAPCWVLTAAHCLQDRPAPEDLTVVLGQERRNHSCEPCQTLAVRSYRLHEAFSPVSYQHDLALLRLQEDADGSCALLSPYVQPVCLPSGAARPSETTLCQVAGWGHQFEGAEEYASFLQEAQVPFLSLERCSAPDVHGSSILPGMLCAGFLEGGTDACQGDSGGPLVCEDQAAERRLTLQGIISWGSGCGDRNKPGVYTDVAYYLAWIREHTVS
One may read the Km as the concentration of substrate that gives half-maximal velocity. Consider B1, for which the Km amounted to 260 ± 40 µM.

The record behind these values is US20240279845A1, “METHOD FOR PREPARING A LIBRARY OF PEPTIDES OR A PEPTIDE” (ECOLE POLYTECHNIQUE FEDERALE DE LAUSANNE (EPFL), priority 2021, published 2024).
